Experimental data as given in US20190127480A1 (Regeneron, published 2019).

T1: soluble heterodimeric hCD3ε/δ.mFc protein (human)
T1 construct: also called soluble human CD3; soluble heterodimeric CD3 protein
T1 chain 1: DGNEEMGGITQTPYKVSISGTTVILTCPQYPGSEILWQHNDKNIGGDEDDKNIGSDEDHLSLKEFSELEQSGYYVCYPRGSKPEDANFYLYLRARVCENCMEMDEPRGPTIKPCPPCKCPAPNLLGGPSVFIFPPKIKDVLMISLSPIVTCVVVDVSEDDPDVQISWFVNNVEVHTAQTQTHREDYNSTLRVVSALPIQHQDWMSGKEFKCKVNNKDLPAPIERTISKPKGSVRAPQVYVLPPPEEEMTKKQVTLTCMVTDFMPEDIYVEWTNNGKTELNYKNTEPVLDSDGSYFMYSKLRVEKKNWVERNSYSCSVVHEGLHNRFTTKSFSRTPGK
T1 chain 2: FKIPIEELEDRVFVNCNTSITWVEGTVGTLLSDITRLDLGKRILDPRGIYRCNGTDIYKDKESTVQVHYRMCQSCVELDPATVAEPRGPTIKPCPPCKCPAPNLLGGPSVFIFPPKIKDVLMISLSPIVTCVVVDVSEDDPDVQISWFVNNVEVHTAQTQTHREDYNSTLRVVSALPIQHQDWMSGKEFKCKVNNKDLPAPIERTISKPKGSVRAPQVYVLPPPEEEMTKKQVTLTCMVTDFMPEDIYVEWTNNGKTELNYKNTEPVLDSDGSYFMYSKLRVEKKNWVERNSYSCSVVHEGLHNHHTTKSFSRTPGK


Legend:
[1] = target: T2, human CD3 on CD3-expressing cells (Jurkat, human T cells) (human, UniProt P07766 23-207; P04234 22-171); assay: FACS on Jurkat cells
T2 construct: On cells CD3 stands within the T cell receptor complex (also gamma and zeta chains); also called human CD3 expressing Jurkat cells
T2 sequence (P07766 23-207 limits assumed, chain 1 of 2): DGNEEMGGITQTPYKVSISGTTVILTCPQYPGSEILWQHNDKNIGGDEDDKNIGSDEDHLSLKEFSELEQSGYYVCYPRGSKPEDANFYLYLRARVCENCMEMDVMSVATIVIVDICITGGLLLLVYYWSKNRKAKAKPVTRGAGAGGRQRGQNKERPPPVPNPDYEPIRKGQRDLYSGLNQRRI
T2 sequence (P04234 22-171 limits assumed, chain 2 of 2): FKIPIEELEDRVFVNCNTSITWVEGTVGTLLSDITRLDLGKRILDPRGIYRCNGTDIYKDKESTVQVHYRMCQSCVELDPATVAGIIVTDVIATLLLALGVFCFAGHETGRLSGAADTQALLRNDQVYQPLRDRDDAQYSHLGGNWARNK
Description: (§1) Briefly, 2×10⁵ cells/well of human CD3-expressing Jurkat, cynomolgus T, or human PSMA-specific expressing cells were incubated with a serial dilution of bispecific antibodies for 30 min at 4° C. After incubation, cells were washed and a goat F(ab′)₂ anti-human Fcγ PE labeled secondary (Jackson Immunolabs) was added to the cells for an additional 30 min. Next, cells were washed, re-suspended in cold PBS+1% BSA and analyzed via flow cytometry on a BD FACS Canto II.
(§2) For FACS analysis, cells were gated by forward scatter height vs. forward scatter area for single events selection, followed by side and forward scatters. The EC₅₀ for cell binding titration was determined using Prism software. Values were calculated using 4-parameter non-linear regression analysis.

[2] = target: T3, human PSMA on PSMA-expressing cells (human, UniProt Q04609 1-750); assay: cell-based or functional assay
T3 sequence (Q04609 whole entry): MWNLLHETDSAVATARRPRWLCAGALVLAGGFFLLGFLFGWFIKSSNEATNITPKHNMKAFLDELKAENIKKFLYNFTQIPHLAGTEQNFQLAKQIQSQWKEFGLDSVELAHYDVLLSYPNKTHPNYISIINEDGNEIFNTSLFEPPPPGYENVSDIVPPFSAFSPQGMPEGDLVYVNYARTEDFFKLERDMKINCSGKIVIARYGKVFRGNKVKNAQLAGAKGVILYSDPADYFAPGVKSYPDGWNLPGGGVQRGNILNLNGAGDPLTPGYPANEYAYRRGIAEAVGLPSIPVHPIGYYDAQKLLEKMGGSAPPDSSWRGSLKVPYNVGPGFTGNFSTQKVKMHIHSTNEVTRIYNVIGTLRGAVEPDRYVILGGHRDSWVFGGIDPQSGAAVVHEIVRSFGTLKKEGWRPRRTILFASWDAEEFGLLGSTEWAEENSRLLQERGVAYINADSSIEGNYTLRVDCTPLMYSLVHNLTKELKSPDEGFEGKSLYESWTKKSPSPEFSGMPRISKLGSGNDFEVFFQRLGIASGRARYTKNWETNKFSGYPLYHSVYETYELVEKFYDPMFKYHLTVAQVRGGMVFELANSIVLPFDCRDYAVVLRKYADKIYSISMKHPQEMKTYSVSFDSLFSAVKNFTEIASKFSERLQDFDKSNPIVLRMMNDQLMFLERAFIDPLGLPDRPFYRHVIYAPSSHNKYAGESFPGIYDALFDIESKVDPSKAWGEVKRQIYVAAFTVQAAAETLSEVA

[3] = target: T2, human CD3 on CD3-expressing cells …; assay: cell-based or functional assay
[4] = target: T4, cynomolgus CD3 on cynomolgus T cells (cynomolgus, UniProt Q95LI5 22-198; Q95LI8 22-171); assay: FACS on cynomolgus T cells
T4 construct: whole, on cells; also called Cyno T-cells; monkey T-cells
T4 sequence (Q95LI5 22-198, form in doubt, chain 1 of 2): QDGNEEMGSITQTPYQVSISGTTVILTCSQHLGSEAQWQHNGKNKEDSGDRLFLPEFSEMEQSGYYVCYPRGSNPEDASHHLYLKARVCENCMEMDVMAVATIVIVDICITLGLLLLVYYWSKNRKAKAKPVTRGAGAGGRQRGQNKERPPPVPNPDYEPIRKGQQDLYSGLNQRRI
T4 sequence (Q95LI8 22-171, form in doubt, chain 2 of 2): as the sequence (P04234 22-171 limits assumed, chain 2 of 2) above, with I5V, N15K, I20V, S32T, D33N, I34N, T64A, S74N, V83L, H141R counted along it
Description: as §1, §2

[5] = target: T3, human PSMA on PSMA-expressing cells; assay: FACS on B16F10.9/PSMA cells
Description: as §1, §2

[6] = target: T1, soluble heterodimeric hCD3ε/δ.mFc …; assay: SPR MASS-1, 37 C, antigen-capture (hCD3ε/δ.mFc captured), antibody injected
Description: Measurements were conducted on a Sierra Sensors MASS-1 instrument.
In the antigen-capture format, the MASS-1 high-density amine sensor surface was derivatized with a goat anti-mouse IgG2a polyclonal antibody (Southern Biotech). Soluble heterodimeric CD3 protein was captured and the respective antibodies were injected over the captured antigen.
Kinetic association (kₐ) and dissociation (kd) rate constants were determined by processing and fitting the data to a 1:1 binding model using MASS-1 AnalyserR2 curve fitting software. Binding dissociation equilibrium constants (KD) and dissociative half-lives (t_{1/2}) were calculated from the kinetic rate constants as: KD (M)=kd/kₐ; and t_{1/2} (min)=(ln 2/(60*kd).

Row | Binder | EC50 [1] [nM] | C4-2 Cell depletion EC50 [2] [nM] | TrampC2.PSMA Cell depletion EC50 [2] [nM] | T cell activation EC50 [3] [nM] | EC50 [4] [nM] | EC50 [5] [nM] | Kd [6] [nM] | T½ [6] [min] | koff [6] [s⁻¹] | kon [6] [M⁻¹ s⁻¹] | 22RV1 Cell depletion EC50 [2] [nM]
1 | BSPSMA/CD3-003 (bispecific antibody, IgG4, V domains shown, modified (chimeric) IgG4 Fc domain; also called PSMA-VH-11810 x CD3-VH-G) VH 1: QVQLVESGGGVVQPGRSLRLSCAASGFTFSSYGMHWVRQAPGKGLEWVAVISYAGNNKYYADSVKGRFTVSRDNSKKTLYLQMNSLRSEDTAVYYCAKDSYYDFLTDPDVLDIWGQGTMVTVSS VH 2: EVQLVESGGGLVQPGRSLRLSCAASGFTFDDYSMHWVRQAPGKGLEWVSGISWNSGSKGYADSVKGRFTISRDNAKNSLYLQMNSLRAEDTALYYCAKYGSGYGKFYHYGLDVWGQGTTVTVSS VL: DIQMTQSPSSLSASVGDSVTITCRASQSINNYLNWYQQKPGKAPKLLIYTASSLLSGVPSRFSGSGSGTDFTLTISGLHPEDFATYFCQQSFSTPPITFGQGTRLDIK | 16.5 | 0.0103 | 0.00643 | 0.00123 | 14.2 | 2.26 |  |  |  |  | 
2 | BSPSMA/CD3-1300 (bispecific antibody, IgG4, V domains shown, modified (chimeric) IgG4 Fc domain; also called PSMA-VH-11810 x CD3-VH-G13) VH 1: QVQLVESGGGVVQPGRSLRLSCAASGFTFSSYGMHWVRQAPGKGLEWVAVISYAGNNKYYADSVKGRFTVSRDNSKKTLYLQMNSLRSEDTAVYYCAKDSYYDFLTDPDVLDIWGQGTMVTVSS VH 2: EVQLVESGGGLVQPGRSLRLSCAASGFTFDDYSMHWVRQAPGKGLEWVSGISWNSGSIGYADSVKGRFTISRDNAKNSLYLQMNSLRAEDTALYYCAKYGSGYGKFYYYGLDVWGQGTTVTVSS VL: DIQMTQSPSSLSASVGDSVTITCRASQSINNYLNWYQQKPGKAPKLLIYTASSLLSGVPSRFSGSGSGTDFTLTISGLHPEDFATYFCQQSFSTPPITFGQGTRLDIK | 102 | 0.00874 |  | 0.00231 | 2170 | 1.25 | 122 | 4.7 | 0.00248 | 20300 | 
3 | BSPSMA/CD3-800 (bispecific antibody, IgG4, V domains shown, modified (chimeric) IgG4 Fc domain; also called PSMA-VH-11810 x CD3-VH-G8) VH 1: QVQLVESGGGVVQPGRSLRLSCAASGFTFSSYGMHWVRQAPGKGLEWVAVISYAGNNKYYADSVKGRFTVSRDNSKKTLYLQMNSLRSEDTAVYYCAKDSYYDFLTDPDVLDIWGQGTMVTVSS VH 2: EVQLVESGGGLVQPGRSLRLSCAASGFTFDDYSMHWVRQAPGKGLEWVSGISWNSGSIGYADSVKGRFTISRDNAKNSLYLQMNSLRAEDTALYYCAKYGSGYGKFYHYGLDVWGQGTTVTVSS VL: DIQMTQSPSSLSASVGDSVTITCRASQSINNYLNWYQQKPGKAPKLLIYTASSLLSGVPSRFSGSGSGTDFTLTISGLHPEDFATYFCQQSFSTPPITFGQGTRLDIK | 19.3 |  | 0.00927 | 0.00176 | 19.6 | 1.31 | 19.4 | 10 | 0.00115 | 59500 | 
4 | BSPSMA/CD3-1000 (bispecific antibody, IgG4, V domains shown, modified (chimeric) IgG4 Fc domain; also called PSMA-VH-11810 x CD3-VH-G10) VH 1: QVQLVESGGGVVQPGRSLRLSCAASGFTFSSYGMHWVRQAPGKGLEWVAVISYAGNNKYYADSVKGRFTVSRDNSKKTLYLQMNSLRSEDTAVYYCAKDSYYDFLTDPDVLDIWGQGTMVTVSS VH 2: EVQLVESGGGLVQPGRSLRLSCAASGFTFDDYSMHWVRQAPGKGLEWVSGISWNSGSKGYADSVKGRFTISRDNAKNSLYLQMNSLRAEDTALYYCAKYGSGYGKFYYYGLDVWGQGTTVTVSS VL: DIQMTQSPSSLSASVGDSVTITCRASQSINNYLNWYQQKPGKAPKLLIYTASSLLSGVPSRFSGSGSGTDFTLTISGLHPEDFATYFCQQSFSTPPITFGQGTRLDIK | 277 |  | 0.00597 | 0.00128 |  | 1.19 | 185 | 1.8 | 0.00637 | 34400 | 
5 | BSPSMA/CD3-1400 (bispecific antibody, IgG4, V domains shown, modified (chimeric) IgG4 Fc domain; also called PSMA-VH-11810 x CD3-VH-G14) VH 1: QVQLVESGGGVVQPGRSLRLSCAASGFTFSSYGMHWVRQAPGKGLEWVAVISYAGNNKYYADSVKGRFTVSRDNSKKTLYLQMNSLRSEDTAVYYCAKDSYYDFLTDPDVLDIWGQGTMVTVSS VH 2: EVQLVESGGGLVQPGRSLRLSCAASGFTFDDYSMHWVRQAPGKGLEWVSGISWNSGSIGYADSVKGRFTISRDNAKNSLYLQMNSLRAEDTALYYCAKYGSGYGKFYHYGMDVWGQGTTVTVSS VL: DIQMTQSPSSLSASVGDSVTITCRASQSINNYLNWYQQKPGKAPKLLIYTASSLLSGVPSRFSGSGSGTDFTLTISGLHPEDFATYFCQQSFSTPPITFGQGTRLDIK | 31.9 |  |  |  | 170 | 1.3 | 53.3 | 3.5 | 0.00331 | 62100 | 
6 | BSPSMA/CD3-005 (bispecific antibody, IgG4, V domains shown, modified (chimeric) IgG4 Fc domain; also called PSMA-VH-11810 x CD3-VH-G20) VH 1: QVQLVESGGGVVQPGRSLRLSCAASGFTFSSYGMHWVRQAPGKGLEWVAVISYAGNNKYYADSVKGRFTVSRDNSKKTLYLQMNSLRSEDTAVYYCAKDSYYDFLTDPDVLDIWGQGTMVTVSS VH 2: EVQLVESGGGLVQPGRSLRLSCAASGFTFDDYSMHWVRQAPGKGLEWVSGISWNSGSIGYADSVKGRFTISRDNAKNSLYLQMNSLRAEDTALYYCAKYGSGYGKFYYYGMDVWGQGTTVTVSS VL: DIQMTQSPSSLSASVGDSVTITCRASQSINNYLNWYQQKPGKAPKLLIYTASSLLSGVPSRFSGSGSGTDFTLTISGLHPEDFATYFCQQSFSTPPITFGQGTRLDIK | 210 | 0.0139 |  | 0.00611 | 6140 | 2.09 | 334 | 2 | 0.00577 | 17300 | 0.00832
7 | BSPSMA/CD3-1700 (bispecific antibody, IgG4, V domains shown, modified (chimeric) IgG4 Fc domain; also called PSMA-VH-11810 x CD3-VH-G17) VH 1: QVQLVESGGGVVQPGRSLRLSCAASGFTFSSYGMHWVRQAPGKGLEWVAVISYAGNNKYYADSVKGRFTVSRDNSKKTLYLQMNSLRSEDTAVYYCAKDSYYDFLTDPDVLDIWGQGTMVTVSS VH 2: EVQLVESGGGLVQPGRSLRLSCAASGFTFDDYSMHWVRQAPGKGLEWVSGISWNSGSKGYADSVKGRFTISRDNAKNSLYLQMNSLRAEDTALYYCAKYGSGYGKFYYYGMDVWGQGTTVTVSS VL: DIQMTQSPSSLSASVGDSVTITCRASQSINNYLNWYQQKPGKAPKLLIYTASSLLSGVPSRFSGSGSGTDFTLTISGLHPEDFATYFCQQSFSTPPITFGQGTRLDIK | 200 | 0.00737 |  | 0.00389 | 3350 | 1.34 | 65.2 | 3.8 | 0.00307 | 47000 | 0.00207
8 | BSPSMA/CD3-1100 (bispecific antibody, IgG4, V domains shown, modified (chimeric) IgG4 Fc domain; also called PSMA-VH-11810 x CD3-VH-G11) VH 1: QVQLVESGGGVVQPGRSLRLSCAASGFTFSSYGMHWVRQAPGKGLEWVAVISYAGNNKYYADSVKGRFTVSRDNSKKTLYLQMNSLRSEDTAVYYCAKDSYYDFLTDPDVLDIWGQGTMVTVSS VH 2: EVQLVESGGGLVQPGRSLRLSCAASGFTFDDYSMHWVRQAPGKGLEWVSGISWNSGSKGYADSVKGRFTISRDNAKNSLYLQMNSLRAEDTALYYCAKYGSGYGKFYHYGMDVWGQGTTVTVSS VL: DIQMTQSPSSLSASVGDSVTITCRASQSINNYLNWYQQKPGKAPKLLIYTASSLLSGVPSRFSGSGSGTDFTLTISGLHPEDFATYFCQQSFSTPPITFGQGTRLDIK | 18.3 |  | 0.00386 | 0.00111 | 890 | 1.03 | 11.1 | 11.3 | 0.00102 | 92100 | 
